This series concerns Modified p53 (human p53 engineered to contain the HIV-1 protease cleavage site VSFNFPQITL upstream o).

With HIV-1 protease, the “SDS-PAGE migration of purified p53 fusion protein after co-expression with HIV-1 protease (cleavage)” value is “The mutagenized p53 migrated more quickly than the wild-type protein (as did p53Δ30), but only after coexpression with HIV-1 protease”.

The values are drawn from patent publication US6429298.
